The source of these data is publication PMC5857972 (2018).

A word on the Kd: it is a measure of binding affinity in units of concentration. Broadly, the koff is the rate constant with which the complex falls apart. Read a high koff as a short-lived complex.

T1: extracellular portion of the human FcγIIA (human, UniProt P12318-1 34-215)
T1 chain: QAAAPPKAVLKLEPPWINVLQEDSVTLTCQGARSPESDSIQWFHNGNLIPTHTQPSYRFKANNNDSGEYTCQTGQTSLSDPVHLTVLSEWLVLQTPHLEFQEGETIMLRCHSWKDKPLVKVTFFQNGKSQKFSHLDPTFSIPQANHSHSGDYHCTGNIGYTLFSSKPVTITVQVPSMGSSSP

B1: Pertuzumab Vκ1|VH3 whole IgG1 (original pairing) (antibody, V domains shown)
VH: EVQLVESGGGLVQPGGSLRLSCAASGFTFTDYTMDWVRQAPGKGLEWVADVNPNSGGSIYNQRFKGRFTLSVDRSKNTLYLQMNSLRAEDTAVYYCARNLGPSFYFDYWGQGTLVTVSS
VL: DIQMTQSPSSLSASVGDRVTITCKASQDVSIGVAWYQQKPGKAPKLLIYSASYRYTGVPSRFSGSGSGTDFTLTISSLQPEDFATYYCQQYYIYPYTFGQGTKVEIK

The target of one experiment is extracellular portion of the human FcγIIA (human) (UniProt P12318). In words: BLI. In general terms: BLI is a label-free optical method that tracks binding on a fibre tip over time.
“Pertuzumab Vκ1|VH2 whole IgG1 variant (from UniProt P01857)” displayed a Kd of 4.74 nM. In the case of “Pertuzumab Vκ2|VH2 whole IgG1 variant (from UniProt P01857)”, the Kd amounted to 4.99 nM. Turning to “Pertuzumab Vκ2|VH6 whole IgG1 variant (from UniProt P01857)”, the Kd is 3.94 nM. For the molecule “Pertuzumab Vκ3|VH1 whole IgG1 variant (from UniProt P01857)”, the Kd amounted to 11.5 nM. On the same count and under the same terms, under “Pertuzumab Vκ3|VH3 whole IgG1 variant (from UniProt P01857)” stands 23.7 nM.

Molecule “Pertuzumab Vκ4|VH1 whole IgG1 variant (from UniProt P01857)” displayed a dissociation constant Kd of 116 nM.

“Pertuzumab Vκ4|VH2 whole IgG1 variant (from UniProt P01857)” yielded a Kd of 3.33 nM.

For “Pertuzumab Vκ5|VH3 whole IgG1 variant (from UniProt P01857)”, the Kd was determined as 15.7 nM. The same measure, in the same setting: under “Pertuzumab Vκ6|VH5 whole IgG1 variant (from UniProt P01857)” stands 83 nM; under “Pertuzumab Vκ6|VH7 whole IgG1 variant (from UniProt P01857)”, 72.7 nM.

As to “Trastuzumab Vκ2|VH6 whole IgG1 variant (from UniProt P01857)”, the Kd turned out to be 14.7 nM.

For “Trastuzumab Vκ3|VH1 whole IgG1 variant (from UniProt P01857)”, the Kd stood at 9.3 nM. On to “Trastuzumab Vκ6|VH1 whole IgG1 variant (from UniProt P01857)”, for which the Kd worked out at 47.9 nM. “Trastuzumab Vκ6|VH4 whole IgG1 variant (from UniProt P01857)” returned a Kd of 30 nM. As to “Trastuzumab Vκ6|VH5 whole IgG1 variant (from UniProt P01857)”, the Kd was determined as 12.5 nM. On the same count and under the same terms, under “Trastuzumab Vκ6|VH6 whole IgG1 variant (from UniProt P01857)” stands 39.7 nM.

Another experiment deals with Pertuzumab Vκ1|VH3 whole IgG1 (original pairing). In words: BLI; Octet QKe; antibody captured by its Fc on Anti-Human Fc Capture (AHC) biosensor, Her2 in solution; KD calculated from Kon and Koff by the Octet software; triplicates.
Take “Her2 (from UniProt P04626 23-1255) (natural protein)”: the Kd was 0.87 nM.

The target in a further experiment is T1, extracellular portion of the human …. In words: BLI.
Molecule B1 returned a koff of 0.00154 s⁻¹.

Another experiment shares this target. Description: BLI. This is another data set of the same source.
As for B1, the affinity, expressed as Kd, was 9.31 nM.
